Results as given in PMC3474754.

Molecular target: full-length uncleaved Reelin (FL-Reelin) (UniProt Q60841)
Assay: cross-linking; BS3 cross-linker, 30 minutes on ice, on FL- or C-cleaved Reelin in conditioned medium; anti-Reelin (G10) immunoblot

stoichiometry N: 2
Substance: full-length uncleaved Reelin (FL-Reelin), Q60841 27-3461
